Molecular target: T1, Drosophila Slit D2 (second leucine-rich repeat domain) (Drosophila, UniProt P24014 310-526, two N-linked glycans)
T1 sequence: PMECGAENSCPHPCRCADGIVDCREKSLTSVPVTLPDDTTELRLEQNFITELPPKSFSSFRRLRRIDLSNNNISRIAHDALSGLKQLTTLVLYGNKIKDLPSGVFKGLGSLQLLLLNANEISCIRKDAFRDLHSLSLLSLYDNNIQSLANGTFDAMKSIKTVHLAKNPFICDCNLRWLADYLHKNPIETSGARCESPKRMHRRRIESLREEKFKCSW
Test: SEC

B1: Drosophila Robo IG1–2 (domain or fragment)
chain: not shown
- stoichiometry N: 1

From paper PMC3680705 (The Journal of biological chemistry, 2006)
